Assay results: US20260034234A1 (AGENSYS, published 2026)

Columns and labels:
[1] = target: Murine ortholog of 191P4D12, N90S, I75A double mutant (on PC3 cells) (mouse) (UniProt Q8R007); assay: FACS titration of Ha22-2(2,4)6.1 on PC3 cells expressing mouse 191P4D12 I75A,N90S
[2] = target: T1, purified recombinant 191P4D12 (ECD amino acids 1-348) (human, UniProt Q96NY8 32-348); assay: SPR (Biacore), antibody captured by anti-human Fc, 191P4D12 ECD as analyte
T1 construct: Range as printed
T1 sequence: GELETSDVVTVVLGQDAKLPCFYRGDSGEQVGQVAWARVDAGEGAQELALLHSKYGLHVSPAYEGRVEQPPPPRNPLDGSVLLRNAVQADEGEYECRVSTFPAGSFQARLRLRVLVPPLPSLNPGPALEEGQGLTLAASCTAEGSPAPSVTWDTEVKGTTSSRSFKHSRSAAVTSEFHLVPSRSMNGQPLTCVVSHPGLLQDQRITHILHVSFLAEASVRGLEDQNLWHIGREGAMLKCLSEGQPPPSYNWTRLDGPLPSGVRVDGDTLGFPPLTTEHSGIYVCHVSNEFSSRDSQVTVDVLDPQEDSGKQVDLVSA
Procedure: The affinity of Ha22-2(2,4)6.1 MAb and Ha22-2(2,4)6.1vcMMAE to purified recombinant 191P4D12 (ECD amino acids 1-348) was performed by Surface Plasmon Resonance (SPR) (BIAcore). Briefly, goat-anti-human Fcγ polyclonal Abs (Jackson Immuno Research Labs, Inc.) were covalently immobilized on the surface of a CM5 sensor chip (Biacore). Purified Ha22-2(2,4)6.1 MAb or Ha22-2(2,4)6.1vcMMAE were then captured on the surface of said chip. On average, approximately 300 RUs of test Ha22-2(2,4)6.1 MAb or Ha22-2(2,4)6.1vcMMAE was captured in every cycle. Subsequently, a series of five (5) to six (6) dilutions of recombinant 191P4D12 (ECD amino acids 1-348) ranging from 1 nM to 100 nM was injected over such surface to generate binding curves (sensograms) that were processed and globally fit to a 1:1 interaction model using BIAevaluation 3.2 and CLAMP software (Myszka and Morton, 1998) (FIG. 22). Table V summarizes association and dissociation rate constants as well as affinities of Ha22-2(2,4)6.1 MAb and Ha22-2(2,4)6.1 vcMMAE to recombinant 191P4D12 (ECD amino acids 1-348).

[3] = target: T2, 191P4D12 (human, wild type, on cells) (human, UniProt Q96NY8 32-510); assay: FACS titration of Ha22-2(2,4)6.1 on PC3 cells expressing 191P4D12
T2 construct: 510 amino acid ORF expressed on PC3, RAT/Rat1(E) cells and present in cancer cell lines and tumor specimens; also called human 191P4D12; wild-type 191P4D12
T2 sequence: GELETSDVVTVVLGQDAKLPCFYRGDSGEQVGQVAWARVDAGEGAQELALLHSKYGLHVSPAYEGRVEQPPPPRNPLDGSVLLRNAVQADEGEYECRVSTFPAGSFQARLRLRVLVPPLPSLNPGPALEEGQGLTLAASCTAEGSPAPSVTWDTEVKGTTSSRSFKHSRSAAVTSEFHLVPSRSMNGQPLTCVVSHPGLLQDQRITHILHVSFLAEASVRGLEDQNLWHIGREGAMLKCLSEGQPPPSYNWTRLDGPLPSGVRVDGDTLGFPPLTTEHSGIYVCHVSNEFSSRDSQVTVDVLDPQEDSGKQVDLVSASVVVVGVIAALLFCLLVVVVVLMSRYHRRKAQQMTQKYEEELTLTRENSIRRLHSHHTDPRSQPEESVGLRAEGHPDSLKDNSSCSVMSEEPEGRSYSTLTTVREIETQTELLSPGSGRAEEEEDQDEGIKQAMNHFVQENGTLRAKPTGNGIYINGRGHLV

[4] = target: T3, 191P4D12 (aa 1-31, 147-346), mFc-C1C2, fusion protein (human, UniProt Q96NY8 1-346); assay: Western blot of purified mFc fusion proteins (non-reduced SDS-PAGE), probed with Ha22-2(2,4)6.1-biotin and streptavidin-HRP
T3 construct: Expressed in 293T cells and purified; also called C1C2 fusion construct; not shown: murine Fc
T3 sequence: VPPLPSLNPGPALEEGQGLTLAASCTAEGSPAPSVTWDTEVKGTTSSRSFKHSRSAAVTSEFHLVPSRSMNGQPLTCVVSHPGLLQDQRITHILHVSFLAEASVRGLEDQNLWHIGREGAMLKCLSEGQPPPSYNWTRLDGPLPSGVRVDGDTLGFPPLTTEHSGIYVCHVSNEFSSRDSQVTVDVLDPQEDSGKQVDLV
Procedure: To further corroborate the results set forth in FIG. 10, a Western Blot analysis was performed. Briefly, the entire extracellular portion of 191P4D12 (full length), as well as specific domains set forth in Table VI were expressed in 293T cells as murine Fc fusion proteins and purified. Goat anti-mouse-HRP were used as a control.

[5] = target: T4, Rat 191P4D12 (on PC3 cells) (rat, UniProt D3ZET1 31-509); assay: FACS on PC3 cells expressing the rat ortholog
T4 construct: whole, on cells; also called PC3-rat-191P4D12; Rat ortholog
T4 sequence: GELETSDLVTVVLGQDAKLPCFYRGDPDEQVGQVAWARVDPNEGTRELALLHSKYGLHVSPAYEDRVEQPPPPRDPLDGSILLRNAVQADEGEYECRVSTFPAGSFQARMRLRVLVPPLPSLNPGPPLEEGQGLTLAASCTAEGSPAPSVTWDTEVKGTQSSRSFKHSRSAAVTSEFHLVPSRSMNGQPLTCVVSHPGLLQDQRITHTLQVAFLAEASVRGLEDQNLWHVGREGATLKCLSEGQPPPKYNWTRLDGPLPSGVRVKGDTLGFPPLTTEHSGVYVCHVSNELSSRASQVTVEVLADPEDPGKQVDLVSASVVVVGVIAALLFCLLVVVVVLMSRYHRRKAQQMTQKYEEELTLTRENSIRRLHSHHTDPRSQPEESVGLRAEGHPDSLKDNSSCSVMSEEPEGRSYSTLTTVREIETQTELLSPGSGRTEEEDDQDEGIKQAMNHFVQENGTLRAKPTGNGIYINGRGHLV
Text: The 191P4D12 protein of human, cynomolgus, rat and murine origin was overexpressed recombinantly in a PC3 cell line to determine cross-reactivity of Ha22-2(2,4)6.1 to these orthologs. It was shown that Ha22-2(2,4)6.1 strongly cross-reacts with cynomolgus and rat orthologs of 191P4D12 (FIG. 23).

- EC50 (read off the curve) [1]: 0.5 nM
- Kd [2]: 16 nM
- koff [2]: 0.0058 s⁻¹
- kon [2]: 380000 M⁻¹ s⁻¹
- EC50 (read off the curve) [3]: ~0.6 nM
- binding result [4]: no binding
- EC50 [5]: 0.44 nM
B1: Ha22-2(2,4)6.1 MAb (antibody, human IgG1, kappa, V domains shown)
VH: EVQLVESGGGLVQPGGSLRLSCAASGFTFSSYNMNWVRQAPGKGLEWVSYISSSSSTIYYADSVKGRFTISRDNAKNSLSLQMNSLRDEDTAVYYCARAYYYGMDVWGQGTTVTVSS
VL: DIQMTQSPSSVSASVGDRVTITCRASQGISGWLAWYQQKPGKAPKFLIYAASTLQSGVPSRFSGSGSGTDFTLTISSLQPEDFATYYCQQANSFPPTFGGGTKVEIKR
notes: Fully human IgG1 kappa from XenoMouse; Used biotinylated in the Western blot; also called 191P4D12 MAb Ha22-2(2,4)6.1; Ha22-(2,4)6.1 MAb
